Assay results: IntAct's records for PubMed 20168298

B1: Polycystin-2 (Homo sapiens), Q13563 (parent)
chain: MVNSSRVQPQQPGDAKRPPAPRAPDPGRLMAGCAAVGASLAAPGGLCEQRGLEIEMQRIRQAAARDPPAGAAASPSPPLSSCSRQAWSRDNPGFEAEEEEEEVEGEEGGMVVEMDVEWRPGSRRSAASSAVSSVGARSRGLGGYHGAGHPSGRRRRREDQGPPCPSPVGGGDPLHRHLPLEGQPPRVAWAERLVRGLRGLWGTRLMEESSTNREKYLKSVLRELVTYLLFLIVLCILTYGMMSSNVYYYTRMMSQLFLDTPVSKTEKTNFKTLSSMEDFWKFTEGSLLDGLYWKMQPSNQTEADNRSFIFYENLLLGVPRIRQLRVRNGSCSIPQDLRDEIKECYDVYSVSSEDRAPFGPRNGTAWIYTSEKDLNGSSHWGIIATYSGAGYYLDLSRTREETAAQVASLKKNVWLDRGTRATFIDFSVYNANINLFCVVRLLVEFPATGGVIPSWQFQPLKLIRYVTTFDFFLAACEIIFCFFIFYYVVEEILEIRIHKLHYFRSFWNCLDVVIVVLSVVAIGINIYRTSNVEVLLQFLEDQNTFPNFEHLAYWQIQFNNIAAVTVFFVWIKLFKFINFNRTMSQLSTTMSRCAKDLFGFAIMFFIIFLAYAQLAYLVFGTQVDDFSTFQECIFTQFRIILGDINFAEIEEANRVLGPIYFTTFVFFMFFILLNMFLAIINDTYSEVKSDLAQQKAEMELSDLIRKGYHKALVKLKLKKNTVDDISESLRQGGGKLNFDELRQDLKGKGHTDAEIEAIFTKYDQDGDQELTEHEHQQMRDDLEKEREDLDLDHSSLPRPMSSRSFPRSLDDSEEDDDEDSGHSSRRRGSISSGVSYEEFQVLVRRVDRMEHSIGSIVSKIDAVIVKLEIMERAKLKRREVLGRLLDGVAEDERLGRDSEIHREQMERLVREELERWESDDAASQISHGLGTPVGLNGQPRPRSSRPSSSQSTEGMEGAGGNGSSNVHV

Variants of: B1
Details: with pkd1_human PKD1, P98161
pkd1_human PKD1, P98161, sequence (P98161 whole entry, looked up): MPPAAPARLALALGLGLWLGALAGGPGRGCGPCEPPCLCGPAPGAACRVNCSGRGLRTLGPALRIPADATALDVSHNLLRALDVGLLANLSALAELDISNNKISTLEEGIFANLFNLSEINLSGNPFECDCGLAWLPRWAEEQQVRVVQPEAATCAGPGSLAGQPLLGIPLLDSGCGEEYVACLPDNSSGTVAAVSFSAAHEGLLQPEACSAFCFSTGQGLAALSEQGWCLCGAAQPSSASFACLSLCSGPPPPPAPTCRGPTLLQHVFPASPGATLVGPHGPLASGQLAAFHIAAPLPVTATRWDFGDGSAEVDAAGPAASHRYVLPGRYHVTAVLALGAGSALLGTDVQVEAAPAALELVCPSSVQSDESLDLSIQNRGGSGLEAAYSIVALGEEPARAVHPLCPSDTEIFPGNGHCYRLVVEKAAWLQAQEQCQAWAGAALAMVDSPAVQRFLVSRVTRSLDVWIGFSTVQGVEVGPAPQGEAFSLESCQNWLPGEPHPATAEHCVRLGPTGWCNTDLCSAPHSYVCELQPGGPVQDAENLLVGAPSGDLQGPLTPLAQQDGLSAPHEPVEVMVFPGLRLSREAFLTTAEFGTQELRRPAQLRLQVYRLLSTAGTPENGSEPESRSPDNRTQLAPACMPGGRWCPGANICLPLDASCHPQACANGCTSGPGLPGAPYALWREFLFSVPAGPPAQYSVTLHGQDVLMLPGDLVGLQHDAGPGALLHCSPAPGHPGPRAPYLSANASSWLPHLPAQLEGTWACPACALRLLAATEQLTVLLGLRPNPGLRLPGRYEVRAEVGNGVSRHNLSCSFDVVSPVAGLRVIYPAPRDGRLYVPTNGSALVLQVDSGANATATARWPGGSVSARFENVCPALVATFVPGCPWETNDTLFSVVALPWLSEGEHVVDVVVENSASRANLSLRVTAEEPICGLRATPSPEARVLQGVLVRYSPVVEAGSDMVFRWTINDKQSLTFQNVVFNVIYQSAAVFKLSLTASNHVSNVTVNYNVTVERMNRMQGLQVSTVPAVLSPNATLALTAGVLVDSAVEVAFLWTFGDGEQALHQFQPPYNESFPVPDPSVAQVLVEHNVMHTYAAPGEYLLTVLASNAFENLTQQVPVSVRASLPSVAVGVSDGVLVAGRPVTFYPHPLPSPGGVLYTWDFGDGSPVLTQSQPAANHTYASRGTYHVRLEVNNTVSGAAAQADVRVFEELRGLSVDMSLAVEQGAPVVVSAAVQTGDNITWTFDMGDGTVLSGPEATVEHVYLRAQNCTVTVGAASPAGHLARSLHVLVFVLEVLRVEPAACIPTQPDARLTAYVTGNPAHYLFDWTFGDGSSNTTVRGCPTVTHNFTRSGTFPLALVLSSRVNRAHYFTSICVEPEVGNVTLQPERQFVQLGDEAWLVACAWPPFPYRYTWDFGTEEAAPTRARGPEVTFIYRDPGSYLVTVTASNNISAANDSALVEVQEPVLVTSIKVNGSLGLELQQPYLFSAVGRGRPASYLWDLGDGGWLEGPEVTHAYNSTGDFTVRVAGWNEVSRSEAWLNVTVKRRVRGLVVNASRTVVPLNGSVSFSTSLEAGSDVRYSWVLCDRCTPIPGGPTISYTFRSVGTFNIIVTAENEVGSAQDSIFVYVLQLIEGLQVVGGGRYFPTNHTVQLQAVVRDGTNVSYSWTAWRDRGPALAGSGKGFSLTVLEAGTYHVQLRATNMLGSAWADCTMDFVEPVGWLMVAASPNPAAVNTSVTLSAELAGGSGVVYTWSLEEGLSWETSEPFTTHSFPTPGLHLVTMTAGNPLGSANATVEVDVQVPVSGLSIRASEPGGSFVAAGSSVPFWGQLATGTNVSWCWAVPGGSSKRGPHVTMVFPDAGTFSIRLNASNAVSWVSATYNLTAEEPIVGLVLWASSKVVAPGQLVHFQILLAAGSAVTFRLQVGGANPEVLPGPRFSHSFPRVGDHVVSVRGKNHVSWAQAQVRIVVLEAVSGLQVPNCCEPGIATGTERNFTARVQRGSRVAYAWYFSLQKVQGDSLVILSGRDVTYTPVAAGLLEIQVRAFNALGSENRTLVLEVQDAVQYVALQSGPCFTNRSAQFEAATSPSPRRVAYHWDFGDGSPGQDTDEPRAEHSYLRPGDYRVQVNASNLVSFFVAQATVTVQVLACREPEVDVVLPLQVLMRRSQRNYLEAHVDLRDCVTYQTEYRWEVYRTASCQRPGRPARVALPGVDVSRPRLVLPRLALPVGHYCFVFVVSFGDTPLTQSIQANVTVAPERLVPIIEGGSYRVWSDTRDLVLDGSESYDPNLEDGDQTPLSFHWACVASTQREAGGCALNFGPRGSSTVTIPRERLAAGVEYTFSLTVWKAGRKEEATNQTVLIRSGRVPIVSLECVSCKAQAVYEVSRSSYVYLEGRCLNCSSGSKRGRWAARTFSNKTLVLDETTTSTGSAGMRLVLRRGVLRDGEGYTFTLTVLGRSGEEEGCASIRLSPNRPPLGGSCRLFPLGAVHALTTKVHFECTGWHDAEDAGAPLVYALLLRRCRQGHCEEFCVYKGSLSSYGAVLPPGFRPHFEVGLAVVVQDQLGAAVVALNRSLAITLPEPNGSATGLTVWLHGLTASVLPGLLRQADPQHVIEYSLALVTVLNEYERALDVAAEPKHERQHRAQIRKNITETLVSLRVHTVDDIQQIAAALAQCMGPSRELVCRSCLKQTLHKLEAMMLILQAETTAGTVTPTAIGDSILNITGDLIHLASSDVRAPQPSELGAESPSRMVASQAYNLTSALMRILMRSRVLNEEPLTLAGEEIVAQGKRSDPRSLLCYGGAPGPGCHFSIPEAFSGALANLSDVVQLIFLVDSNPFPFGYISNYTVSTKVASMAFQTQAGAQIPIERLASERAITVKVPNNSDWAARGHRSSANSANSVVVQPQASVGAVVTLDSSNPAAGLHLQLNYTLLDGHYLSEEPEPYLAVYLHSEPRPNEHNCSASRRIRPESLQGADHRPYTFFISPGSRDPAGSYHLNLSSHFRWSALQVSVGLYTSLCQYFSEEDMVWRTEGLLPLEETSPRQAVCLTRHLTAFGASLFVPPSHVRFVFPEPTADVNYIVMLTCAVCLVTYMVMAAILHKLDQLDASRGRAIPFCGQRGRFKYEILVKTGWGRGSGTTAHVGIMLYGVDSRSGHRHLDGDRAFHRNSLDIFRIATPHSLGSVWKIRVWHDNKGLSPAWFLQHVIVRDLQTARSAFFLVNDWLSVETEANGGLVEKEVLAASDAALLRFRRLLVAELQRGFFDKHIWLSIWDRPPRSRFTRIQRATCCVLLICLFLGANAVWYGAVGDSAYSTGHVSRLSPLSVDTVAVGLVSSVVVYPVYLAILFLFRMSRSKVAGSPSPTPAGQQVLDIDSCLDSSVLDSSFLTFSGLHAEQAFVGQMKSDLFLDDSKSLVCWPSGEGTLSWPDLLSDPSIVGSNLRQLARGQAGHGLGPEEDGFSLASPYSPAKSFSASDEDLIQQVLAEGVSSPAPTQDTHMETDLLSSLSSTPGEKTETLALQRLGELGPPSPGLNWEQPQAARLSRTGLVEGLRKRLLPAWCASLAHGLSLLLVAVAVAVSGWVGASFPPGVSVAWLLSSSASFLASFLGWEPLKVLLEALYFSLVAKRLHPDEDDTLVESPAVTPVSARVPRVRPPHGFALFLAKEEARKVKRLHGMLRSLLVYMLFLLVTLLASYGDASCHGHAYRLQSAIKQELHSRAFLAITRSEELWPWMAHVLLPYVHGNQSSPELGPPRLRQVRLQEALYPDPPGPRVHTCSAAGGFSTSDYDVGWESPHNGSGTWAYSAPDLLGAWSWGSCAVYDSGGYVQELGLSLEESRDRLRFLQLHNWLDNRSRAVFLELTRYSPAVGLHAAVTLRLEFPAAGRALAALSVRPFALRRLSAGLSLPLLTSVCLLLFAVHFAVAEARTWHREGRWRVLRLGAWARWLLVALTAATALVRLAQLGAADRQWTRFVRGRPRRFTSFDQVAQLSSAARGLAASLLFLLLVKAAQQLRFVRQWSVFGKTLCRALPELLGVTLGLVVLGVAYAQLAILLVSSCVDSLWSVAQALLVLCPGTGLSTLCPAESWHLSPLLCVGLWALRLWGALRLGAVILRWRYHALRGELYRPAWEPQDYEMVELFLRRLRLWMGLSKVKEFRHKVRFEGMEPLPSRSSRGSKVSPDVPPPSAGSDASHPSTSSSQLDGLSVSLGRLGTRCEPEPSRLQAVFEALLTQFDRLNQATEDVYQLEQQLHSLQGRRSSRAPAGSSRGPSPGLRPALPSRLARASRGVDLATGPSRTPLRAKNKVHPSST

Effect of a mutation on the interaction, disrupting interaction:
V846A
I853A
L867A
I860A
